Results from patent US20260250361A1 (HUAHUI HEALTH, published 2026).
Where a chain is given by its changes, count along the chain named.

Experiments:
[1] = biological target: Pre-S1 domain of the L protein on recombinant HBV D genotype virus (hepatitis B virus, D genotype); assay: cell-based or functional assay
[2] = biological target: T1, FcγRIIa R131 on Jurkat/NFAT-luc2p/FcγRIIa R131 cells (UniProt P12318 34-317); assay: cell-based or functional assay
T1 sequence (looked up): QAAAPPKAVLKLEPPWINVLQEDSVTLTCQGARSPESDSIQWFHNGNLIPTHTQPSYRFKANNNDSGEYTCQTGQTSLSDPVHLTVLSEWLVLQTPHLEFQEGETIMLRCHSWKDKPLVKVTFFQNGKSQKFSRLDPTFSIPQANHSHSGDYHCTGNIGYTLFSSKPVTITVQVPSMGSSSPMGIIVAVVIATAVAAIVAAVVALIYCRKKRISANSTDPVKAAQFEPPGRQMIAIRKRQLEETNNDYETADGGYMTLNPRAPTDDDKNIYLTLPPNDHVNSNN

[3] = biological target: FcγRIIIa F158 on Jurkat/NFAT-luc2p/FcγRIIIa F158 cells (UniProt P08637 17-254, limits assumed); assay: cell-based or functional assay
[4] = biological target: T2, antigen peptide NC36b (pre-S1); assay: ELISA on the antigen peptide NC36b (Pre-S1), panel title 'Binding to PreS1'
T2 construct: Synthesised by Beijing Zhongke Yaguang Biotechnology; also called target antigen Pre-S1

hFcγRIIIa (F158) [5] = biological target: T3, hFcγRIIIa (F158) (human, UniProt P08637 17-208); assay: Biacore; ratio against A14 WT
T3 construct: F at position 158; also called hFcγR3a F158
Experimental: (§1) Different concentrations of recombinant hFcγR were used as the mobile phase over the flow path to allow binding and dissociation with the antibodies on the chip at pH 7.0. The affinity was then calculated by fitting the data using a 1:1 Langmuir binding model.

hFcγRIIa (R131) [6] = biological target: T4, hFcγRIIa (R131) (human, UniProt P12318 34-217); assay: Biacore; ratio against A14 WT
T4 construct: also called hFcγR2a R131
T4 sequence: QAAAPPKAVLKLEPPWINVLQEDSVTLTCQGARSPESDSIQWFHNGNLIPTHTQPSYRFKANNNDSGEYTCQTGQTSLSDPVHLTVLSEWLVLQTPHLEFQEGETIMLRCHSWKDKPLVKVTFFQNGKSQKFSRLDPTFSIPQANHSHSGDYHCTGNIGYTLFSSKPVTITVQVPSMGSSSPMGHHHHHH
Experimental: as §1

hFcγRIa [7] = biological target: T5, hFcγRIa (human, UniProt P12314 16-288, limits assumed); assay: Biacore; ratio against A14 WT
T5 construct: Recombinant, Ni column purified; also called hFcγR1a; human FcγRI
Experimental: as §1

hFcγRIIIa (V158) [8] = biological target: T6, hFcγRIIIa (V158) (human, UniProt P08637 17-208); assay: Biacore; ratio against A14 WT
T6 construct: V at position 158; also called hFcγR3a V158
Experimental: as §1

hFcγRIIa (H131) [9] = biological target: T7, hFcγRIIa (H131) (human, UniProt P12318 34-217); assay: Biacore; ratio against A14 WT
T7 construct: also called hFcγR2a H131
T7 sequence: T4 sequence with R134H
Experimental: as §1

hFcγRIIb [10] = biological target: T8, hFcγRIIb (human, UniProt P31994 43-217); assay: Biacore; ratio against A14 WT
T8 construct: also called hFcγR2b
T8 sequence: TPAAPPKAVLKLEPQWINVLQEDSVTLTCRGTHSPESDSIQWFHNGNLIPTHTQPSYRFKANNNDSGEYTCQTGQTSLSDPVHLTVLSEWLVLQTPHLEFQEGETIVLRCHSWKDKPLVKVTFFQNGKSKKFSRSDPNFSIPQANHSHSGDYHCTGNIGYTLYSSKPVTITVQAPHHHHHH
Experimental: as §1

human FcRn [11] = biological target: T9, human FcRn (human, UniProt P55899 24-297; P61769 21-119); assay: Biacore (SPR): hFcRn amine-coupled on a CM5 chip, antibody as mobile phase, pH 6.0, 1:1 Langmuir fit
T9 construct: beta-2-microglobulin is not mentioned; also called hFcRn; recombinantly expressed hFcRn
Experimental: (§2) The affinity was then calculated by fitting the data using a 1:1 Langmuir binding model.

human FcRn [12] = biological target: T9, human FcRn; assay: Biacore; hFcRn amine-coupled on CM5 chip, antibody in mobile phase, pH 6.0, 1:1 Langmuir fit
Experimental: as §2

hFcγRIIIa (F158) [13] = biological target: T3, hFcγRIIIa (F158); assay: Biacore; antibody captured on Protein G CM5 chip, hFcγR in mobile phase, pH 7.0, 1:1 Langmuir fit
Experimental: as §1

hFcγRIIa (R131) [14] = biological target: T4, hFcγRIIa (R131); assay: as above
Experimental: as §1

hFcγRIa [15] = biological target: T5, hFcγRIa; assay: as above
Experimental: as §1

hFcγRIIIa (V158) [16] = biological target: T6, hFcγRIIIa (V158); assay: as above
Experimental: as §1

hFcγRIIa (H131) [17] = biological target: T7, hFcγRIIa (H131); assay: as above
Experimental: as §1

hFcγRIIb [18] = biological target: T8, hFcγRIIb; assay: as above
Experimental: as §1

T9 sequence (P55899 24-297 limits assumed, chain 1 of 2): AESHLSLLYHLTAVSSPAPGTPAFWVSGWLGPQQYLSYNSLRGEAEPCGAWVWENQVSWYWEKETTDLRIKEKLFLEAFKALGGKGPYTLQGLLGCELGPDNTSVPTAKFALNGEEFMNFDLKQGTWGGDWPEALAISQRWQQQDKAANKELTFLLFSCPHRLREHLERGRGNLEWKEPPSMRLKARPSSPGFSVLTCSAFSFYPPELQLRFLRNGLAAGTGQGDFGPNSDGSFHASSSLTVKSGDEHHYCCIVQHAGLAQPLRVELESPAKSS
T9 sequence (P61769 21-119 limits assumed, chain 2 of 2): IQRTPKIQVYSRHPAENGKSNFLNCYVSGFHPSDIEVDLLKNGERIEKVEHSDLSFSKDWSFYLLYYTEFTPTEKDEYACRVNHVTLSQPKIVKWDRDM
T3 sequence (P08637 other isoform, or with tags, fused parts or gaps): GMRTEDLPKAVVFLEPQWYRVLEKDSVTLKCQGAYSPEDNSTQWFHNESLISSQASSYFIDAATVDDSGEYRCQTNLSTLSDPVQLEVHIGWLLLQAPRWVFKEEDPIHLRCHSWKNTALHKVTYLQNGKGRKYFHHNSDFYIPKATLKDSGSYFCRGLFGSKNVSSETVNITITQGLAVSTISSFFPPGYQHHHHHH
T5 sequence (P12314 other isoform, or with tags, fused parts or gaps limits assumed): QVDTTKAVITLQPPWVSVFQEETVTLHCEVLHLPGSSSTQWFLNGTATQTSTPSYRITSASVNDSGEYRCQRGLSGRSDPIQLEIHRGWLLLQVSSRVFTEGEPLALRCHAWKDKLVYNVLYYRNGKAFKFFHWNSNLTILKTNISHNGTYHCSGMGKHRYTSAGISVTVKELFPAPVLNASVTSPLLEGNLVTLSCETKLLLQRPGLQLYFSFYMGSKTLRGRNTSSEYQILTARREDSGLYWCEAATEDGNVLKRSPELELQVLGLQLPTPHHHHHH
T6 sequence (P08637 other isoform, or with tags, fused parts or gaps): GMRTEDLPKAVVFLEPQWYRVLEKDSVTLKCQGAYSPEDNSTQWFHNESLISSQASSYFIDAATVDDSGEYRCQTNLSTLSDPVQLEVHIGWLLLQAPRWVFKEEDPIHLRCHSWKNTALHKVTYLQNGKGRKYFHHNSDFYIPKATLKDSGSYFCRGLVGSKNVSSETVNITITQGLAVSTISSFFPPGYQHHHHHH

B1: afuco-A14 GA LS (antibody, human IgG1, lambda)
heavy: QVQLQQSGPGLVKPSQTLSLTCAISGDSVSSNSAAWNWIRQSPSRGLEWLGRTYYRSKWYNDYAVSVKSRITINPDTSKNQFSLQLNSVTPEDTAVYYCARGTRWGMDVWGQGTLVTVSSASTKGPSVFPLAPSSKSTSGGTAALGCLVKDYFPEPVTVSWNSGALTSGVHTFPAVLQSSGLYSLSSVVTVPSSSLGTQTYICNVNHKPSNTKVDKKVEPKSCDKTHTCPPCPAPELLAGPSVFLFPPKPKDTLMISRTPEVTCVVVDVSHEDPEVKFNWYVDGVEVHNAKTKPREEQYNSTYRVVSVLTVLHQDWLNGKEYKCKVSNKALPAPIEKTISKAKGQPREPQVYTLPPSRDELTKNQVSLTCLVKGFYPSDIAVEWESNGQPENNYKTTPPVLDSDGSFFLYSKLTVDKSRWQQGNVFSCSVLHEALHSHYTQKSLSLSPGK
light: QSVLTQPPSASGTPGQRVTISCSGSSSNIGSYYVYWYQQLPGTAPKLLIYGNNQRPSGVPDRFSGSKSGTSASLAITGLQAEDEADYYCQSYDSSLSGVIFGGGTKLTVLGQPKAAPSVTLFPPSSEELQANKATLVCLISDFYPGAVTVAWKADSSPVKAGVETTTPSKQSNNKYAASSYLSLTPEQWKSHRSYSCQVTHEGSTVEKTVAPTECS
modifications: Afucosylated modification (expressed in Fut8-knockout FCC# cells)
notes: IgG1
IC50 of inhibition of HBV infection of HepG2-hNTCP cells (HBeAg secretion) [1]: ~0.011 µg/mL
ADCP activity, fold enhancement compared to A14 (Jurkat/NFAT-luc2p/FcγRIIa R131 reporter) [2]: ≥ 4.7 fold
ADCC activity, fold enhancement compared to A14 (Jurkat/NFAT-luc2p/FcγRIIIa F158 reporter) [3]: 18.6 fold
EC50 (read off the curve) [4]: ~0.02 µg/mL
Fold (KD of A14 WT over KD of afuco-A14 GA LS) (hFcγRIIIa (F158) [5]): 11 fold
Fold (KD of A14 WT over KD of afuco-A14 GA LS) (hFcγRIIa (R131) [6]): 3.83 fold
Fold (KD of A14 WT over KD of afuco-A14 GA LS) (hFcγRIa [7]): 0.41 fold
Fold (KD of A14 WT over KD of afuco-A14 GA LS) (hFcγRIIIa (V158) [8]): 7.89 fold
Fold (KD of A14 WT over KD of afuco-A14 GA LS) (hFcγRIIa (H131) [9]): 4.63 fold
Fold (KD of A14 WT over KD of afuco-A14 GA LS) (hFcγRIIb [10]): 0.76 fold
Kd (human FcRn [11]): 6.46 nM
fold change in KD against A14 WT (human FcRn [12]): 3.4 fold
Kd (hFcγRIIIa (F158) [13]): 588 nM
Kd (hFcγRIIa (R131) [14]): 204 nM
Kd (hFcγRIa [15]): 173 nM
Kd (hFcγRIIIa (V158) [16]): 123 nM
Kd (hFcγRIIa (H131) [17]): 169 nM
Kd (hFcγRIIb [18]): 7470 nM
